Reference: the RNAGym collection of RNA variant scans (doi:10.1073/pnas.2313332121)
Variants at the floor of the assay were thinned out.

B1: TPR 5TU (parent)
chain: GGAUCUUCUCGAUCUAACAAAAAAGACAAAUCUGCCACAAAGCUUGAGAGCAUCUUCGGAUGCAGAGGCGGCAGCCUUCGGUGGCGCGAUAGCGCCAACGUUCUCAACUAUGACACGCAAAACGCGUGCUCCGUUGAAUGGAGUUUAUCAUG

Variants of: B1
Experiment: polymerase ribozyme fitness, log enrichment relative to wild type (log ratio); higher = more active; in vitro selection for triplet polymerase activity
Summary of the method: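 For each subunit of a heterodimeric triplet polymerase ribozyme, a mutant library was built by PCR and transcribed, then taken through a single in vitro selection round in triplicate. Selection involved annealing to a biotinylated primer, the partner subunit and triplets, incubation frozen at −7 °C, gel excision of extended constructs, capture on streptavidin beads and RT-PCR. Genotypes were retained after Illumina sequencing of inputs and outputs only with ≥10 input reads and ≥1 read in each output. Fitness is defined as the logarithm of a genotype's enrichment relative to wild-type enrichment, using inverse-variance-weighted averages across replicates, with the logarithm taken to base 2.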
With GGAUCUUCUCGAUCUAACAAACAAGAUAAAUCUGCCACAAAGCUUGAGAGCCUCUUCGGAUGCAGAGGCGGCAGCCUUCGGUGGCGCGAUAGCGCCAACGUUCUCAACUAUGACACGCAAAACGCGUGCUCCGUUGAAUGGAGUUUAUCAUG [A22C C27U A52C] the “polymerase ribozyme fitness (log ratio)” value was -2.64. For GGAUCUUCUCGAUCUAACAAACAAGACUAAUCUGCCACAAAGCUUGAGAGCAUCUUCCGAUGCAGAGGCGGCAGCCUUCGGUGGCGCGAUCGCGCCAACGUUCUCAACUAUGACACGCAAAACGCGUGCUCCGUUGAAUGGAGUUUAUCAUG [A22C A28U G58C A91C], the “polymerase ribozyme fitness (log ratio)” value was at most -4.2. For GGAUCUUCUCGAUCUAACAAACAAGACAAAUCUGCCACAAAGCUUGCGAGGAUCUUCGGAUGCGGAGGCGGAAGCCUUCGGUGGCGCGAUAGCGUCAACGUUCUCAGCUAUGUCACGCAAAACGCGUGCUCCGUAGAAUGGAGUUUAUCAUG [A22C A47C C51G A64G C72A C95U A107G A113U U135A], the “polymerase ribozyme fitness (log ratio)” value was at most -4.2. For GGAUCUUCUCGAUCUAACAAACAAGACAAAUCUGCCACAAAGCUUGAGAGCAUCUUAGGAUGCAGAGGCGGCAGCCUUCGGUGGCGCGAUAGCGCCAACGUUCUCGACUAUGACACGCAAAACGCGUGCUCCGUUGAAUGCAGUUUAUCAUG [A22C C57A A106G G141C], the “polymerase ribozyme fitness (log ratio)” value was -0.358. For GGAUCUUCUCGAUCUAACAAACAAGAAAAAUCUGCCACAAAGCUUGAGAGCAUCUACGGAUGCAGAGGCGGCAGCCUUCGGUGGUGCGAUAGAGCCAAGGUUCUCAACUAUGACACGCAAAACGCGUGCUCCGUUGAUUGGAGUUUAUCAUG [A22C C27A U56A C85U C93A C99G A138U], the “polymerase ribozyme fitness (log ratio)” value was at most -4.2. With GGAUCUUCUCGAUCUAACAAACAAGACAAAUCUGCCACCAAGCUUGAGAGCAACUUCGGAUGCAGAGACGGCAGCCUUCGGUGGCGCGAUUGCGCCAACGUUCUCAACUAUGACACGCAAAACGCGUGCUCCGUUGAAUGGAGUUAAUCAUG [A22C A39C U53A G68A A91U U146A] the “polymerase ribozyme fitness (log ratio)” value was at most -4.2. With GGAUCUUCUCGAUCUAACAAACAAGACAAAUCUGACACAAAGCUUGAGAGCAUCAUUGGAUGCAGAGGCGGCAGCCUUCGGUGGCUCGAUAGCGCCAACGUUCUCAACUAUGACACGCUAAACGCGUGCUCCGUUGAAUGGAGUUUAUCAUG [A22C C35A U55A C57U G86U A119U] the “polymerase ribozyme fitness (log ratio)” value was at most -4.2. In the case of GGAUCUUCUCGAUCUAACAAACAAGACAAAUCUGCCACAAAGCUUGAGAGCAUCUUCGGAUGCAGAGGCGGCAGCCUUCGGUGGAGCGAUAGCGCCAACGUUCUCAACUAUGACACGCAAAACGCGUGCUCCGUUGAAUGGAGUUUAUCAUG [A22C C85A], the “polymerase ribozyme fitness (log ratio)” value is reported as -1.08. In the case of GGAUCUUCUCGAUCUAACAAACAAGACAAAUCUGCCACAACGCUUGAGCGCAACUUCGGAUGCAGAUGCGGCAGCCUUCGGUGGCGCGAUAGCGCCAACGUUCUCAACUAUGACACACAAAACGCGUGCUACGUUGAAUGGAGUUUAUCAUG [A22C A41C A49C U53A G67U G117A C131A], the “polymerase ribozyme fitness (log ratio)” value is reported as at most -4.2. For GGAUCUUCUCGAUCUAACAAACAAGACAAAUCUGCCACCAAGCUUGAGAGCAUCAUCGGAUGCAGAGGCGGCAGCCUUCGGUGGCGCGAUAGCGCCAACGUGCUCAACUAUGACACGCAAAACGCGUGUUCCGUUGAAUGGAGUUUAUCAUG [A22C A39C U55A U102G C129U], the “polymerase ribozyme fitness (log ratio)” value was at most -4.2. In the case of GGAUCUUCUCGAUCUAACAAACAAGACAUAUCCGCCACAAAGCUUGCGAGCAGCUUCGGAUGCAGAGGCGGCAGCCUUCGGUGGCGCGAUAGCGUCAACGUUCUAAACUAUGACACGUAAAACGCGUGCUCCGUUGAAUGGAGUUUAUCAUG [A22C A29U U33C A47C U53G C95U C105A C118U], the “polymerase ribozyme fitness (log ratio)” value is reported as at most -4.2. For GGAUCUUCUCGAUCUAACAAACAAGACAAAUCUGCCAUAAAGCUUGAGAGCAUCUUCGGAUGCAGAGGCGGCAGCCUUCGUUGGCGGGAUAGCGCCAACGUUCUCAACUAUGACACGCAAAACGCGUGCUCCGUUGAAUGGAGAUUAUCAUG [A22C C38U G81U C87G U144A], the “polymerase ribozyme fitness (log ratio)” value was at most -4.2. With GGAUCUUCUCGAUCUAACAAACAAGACAAAUCUGCCACAAUGCUUGAGAGCACCUUCGGAUGCAGAGGCGGCAGUCUUCGGUGGCGCGAUAGCGCCAACGUUCUCAACUAUGACACGCAAAACGCGUGCUCCGUUGAAUGGAGUUUAUCAUG [A22C A41U U53C C75U] the “polymerase ribozyme fitness (log ratio)” value was -2.58. With GGAUCUUCUCGAUCUAACAAACAAGACAAAUCUGCCACAAAGCUUGAGAGCAUCUUCGGAUGCAGAGGCGGCAGCCUUCGGUGGCGCGAUAGCGCCAACGUUCUCAACUAUGACACGCAAAACGCGUGCUCCGUUGGAUGGAGUUUAUCAUG [A22C A137G] the “polymerase ribozyme fitness (log ratio)” value was -2.58. In the case of GGAUCUUCUCGAUCUAACAAACAAGACAAAUCUGCCAAAAAGCGUGAGAGCAUCUUCGGAUGCAGAGGCGGCAGACUUCGGUGACGCGAUAGCGCCAACGUUCUCAACUAUGACACACAAAACGCGUGCUCCGUAGAAUGGAGUUUAUCAGG [A22C C38A U44G C75A G84A G117A U135A U151G], the “polymerase ribozyme fitness (log ratio)” value is reported as at most -4.2. For GGAUCUUCUCGAUCUAACAAACAAGACAAAUCUGCCACAAAGCUUGAGCGCAUCUUCGGAUGCAGAGGCGGCAGCCUUCGGUGCCGCGAUAGCUCCAACGUUCUCAACUAUGACACGCAAAACGCGUGCUCCGUUGAAUGGAGUUUAUCAUG [A22C A49C G84C G94U], the “polymerase ribozyme fitness (log ratio)” value was at most -4.2. With GGAUCUUCUCGAUCUAACAAACAAGACAAAUCUGCCACAAAGUUUGAGAGUAUCUUCGGAUGCAGAGGCGGCAGCAUUCGGUGGCGCGAUAGAGCCAACGUUCUCAACUAUGACACGCAAAACGGGUGCUCCGUUGAAUGGAGUUUAUCAUG [A22C C43U C51U C76A C93A C125G] the “polymerase ribozyme fitness (log ratio)” value was at most -4.2. With GGAUCUUCUCGAUCUAACAAACAAGACAAAUCUGCCACAAAGCUUGAGAGCAUCUUCGGAUGCAGCGGCGGCAGCCUUCGGUGGCGCGAUAGCGCCAACGUUGUCAACUAUGACACGCAAAACGCCUGCUCCGUUGAAUGGAGUUUAUCAUG [A22C A66C C103G G126C] the “polymerase ribozyme fitness (log ratio)” value was at most -4.2. With GGAUCUUCUCGAUCUAACAAACAAGAGAAAUCUGCCACAAAGCUUGAGAGCAUCUUCGGAUGCAGAGGCGGCAGCUUUCGGUGGCGCGAUAGCGCGAACGUUCUCAACUAUGACACGCAAAACGCGUGCUCCGUUGAAUUGAGUUUAUCAUG [A22C C27G C76U C96G G140U] the “polymerase ribozyme fitness (log ratio)” value was at most -4.2.
